In the experiment the target is T1, bovine serum albumin (bovine, UniProt P02769 25-607).
T1 construct: also called BSA
Description: SELDI-TOF ProteinChip, protein covalently bound to PS-1 chip, SP added. Here is the method:
HGFIN-SP interaction was studied by pre-treating the PS1 chips with 50% acetonitrile for 3 min. After this, the chips were incubated for 45 min with the following: 2.5 μg HGFIN (experimental sample), anti-Id2, an unrelated IgG regarding its ability to complex with SP and was therefore treated as a negative control, rabbit anti-SP (positive control) or 20 ng fibronectin, fragment III-C (positive control). The arrays were blocked for 25 min with 1M ethanolamine and washed with PBS+0.5% Triton X (2×) and a final PBS wash step. After this the chips were washed with PBS+Triton-x, PBS, rinsed with 5 mM Hepes and then dried. CHCA was applied and the non-covalently bound SP was detected with the SELDI-Time of Flight Mass spectrometer as described for the profiling studies for HGFIN.
Fibronectin has been reported to bind SP. Therefore, this property of fibronectin was used as a positive control for SP interaction on the SELDI system. […] Similar results were shown with another positive control: rabbit anti-SP (covalently bound) and SP (FIG. 4C, lower chromatogram). No peak was detected in two negative controls, which consisted of bovine serum albumin or an unrelated antibody (anti-Id2) covalently bound to the surface of PS-1.

T1 sequence (P02769 25-607 limits assumed): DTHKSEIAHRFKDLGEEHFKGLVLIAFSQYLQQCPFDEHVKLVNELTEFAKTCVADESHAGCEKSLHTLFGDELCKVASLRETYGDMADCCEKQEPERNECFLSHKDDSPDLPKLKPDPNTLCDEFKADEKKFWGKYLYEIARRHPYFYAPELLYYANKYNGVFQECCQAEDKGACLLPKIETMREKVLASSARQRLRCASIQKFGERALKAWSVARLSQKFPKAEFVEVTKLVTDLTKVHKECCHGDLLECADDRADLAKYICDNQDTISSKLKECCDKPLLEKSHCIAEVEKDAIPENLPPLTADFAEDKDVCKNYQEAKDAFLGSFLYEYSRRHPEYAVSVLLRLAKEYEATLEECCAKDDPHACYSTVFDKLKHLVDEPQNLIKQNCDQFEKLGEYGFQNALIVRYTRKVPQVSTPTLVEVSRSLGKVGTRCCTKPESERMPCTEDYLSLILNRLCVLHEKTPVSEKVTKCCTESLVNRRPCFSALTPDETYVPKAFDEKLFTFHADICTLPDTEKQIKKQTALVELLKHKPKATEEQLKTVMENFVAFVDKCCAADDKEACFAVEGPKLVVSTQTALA

B1: Substance P (peptide, UniProt P20366 58-68, looked up)
peptide: RPKPQQFFGLM
notes: Substance P is an 11-residue peptide cut from it; 2 ug was added to the chips; also called SP
As for B1, the binding result is given as “no binding”.
